The target in this data set is T1, Integrin beta3 (CD61, GP3A), overexpressed on A549-ITGB3-OE cells (Homo sapiens) (UniProt P05106).
T1 sequence: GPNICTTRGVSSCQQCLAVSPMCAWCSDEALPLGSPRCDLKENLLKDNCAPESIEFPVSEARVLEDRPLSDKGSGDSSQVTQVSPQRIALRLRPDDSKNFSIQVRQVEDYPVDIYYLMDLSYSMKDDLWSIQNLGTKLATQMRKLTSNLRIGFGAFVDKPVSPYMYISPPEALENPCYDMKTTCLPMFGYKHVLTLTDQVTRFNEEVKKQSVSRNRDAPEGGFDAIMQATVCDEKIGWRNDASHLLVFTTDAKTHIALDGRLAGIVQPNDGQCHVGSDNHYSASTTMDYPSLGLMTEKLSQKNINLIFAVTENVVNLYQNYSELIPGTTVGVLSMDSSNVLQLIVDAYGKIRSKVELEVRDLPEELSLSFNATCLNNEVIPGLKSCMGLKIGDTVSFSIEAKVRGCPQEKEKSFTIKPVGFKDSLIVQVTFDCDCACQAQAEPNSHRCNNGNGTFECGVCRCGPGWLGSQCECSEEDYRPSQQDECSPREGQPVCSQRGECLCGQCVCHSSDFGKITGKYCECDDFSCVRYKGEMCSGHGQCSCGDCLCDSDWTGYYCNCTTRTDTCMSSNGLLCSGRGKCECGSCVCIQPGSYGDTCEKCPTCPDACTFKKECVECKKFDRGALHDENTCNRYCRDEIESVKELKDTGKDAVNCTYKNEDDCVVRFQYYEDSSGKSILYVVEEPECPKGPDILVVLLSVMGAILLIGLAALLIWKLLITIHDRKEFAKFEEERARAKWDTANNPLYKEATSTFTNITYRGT
Description: flow cytometry. The note with it: live A549-ITGB3-OE cells, FAM label; PBS with 5 mM MgCl2, 4.5 g/L glucose, 100 ug/mL tRNA; 4 C, 30 min; pH not stated; pull-down on ice 30 min. (In general: In flow cytometry, cells or beads pass a laser one at a time.)

Regarding “TCCACGATGTAGGATCCACATGAGCGCTCCTGTTACCCTG [S10yh2]”, the Kd (in general, the equilibrium constant for the complex coming apart) was found to be 61.2 nM. In turn, “TTCAGCACTCCACGCATAGCTCCACGATGTAGGATCCACATGAGCGCTCCTGTTACCCTGCCTATGCGTGCTACCGTGAA [S10]” had a Kd of 71.4 nM. The Kd values of the last two sequences are within 1.5-fold of each other.

These data come from PMC10448441.
